Values of other authors in publication PMC6753016.
Read-outs that look alike come from different tables or passages of the source. Each block holds one substance with its values, some of them ahead of it.

Columns and labels:
Trypsin (Bos taurus) [1] = target: Trypsin (Bos taurus) (UniProt P00760)
[2] = target: Chymotrypsin (Bos taurus) (UniProt P00766)
[3] = target: Factor XIIa (Homo sapiens) (UniProt P00748)
Plasmin (Homo sapiens) [4] = target: Plasmin (Homo sapiens) (UniProt P00747)
[5] = target: Cathepsin G (Homo sapiens) (UniProt P08311)
Sequence of Cathepsin G (Homo sapiens) (P08311 21-243): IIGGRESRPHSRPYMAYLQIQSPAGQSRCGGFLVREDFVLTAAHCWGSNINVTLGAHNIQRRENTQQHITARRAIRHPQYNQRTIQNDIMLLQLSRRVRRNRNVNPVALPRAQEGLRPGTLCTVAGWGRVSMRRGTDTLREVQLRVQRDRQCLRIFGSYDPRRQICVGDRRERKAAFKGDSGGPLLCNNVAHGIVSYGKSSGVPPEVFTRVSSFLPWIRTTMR

[6] = target: Hageman factor (Homo sapiens) (UniProt P00748)
β-Trypsin (Bos taurus) = β-Trypsin (Bos taurus) (UniProt P00760)
[7] = target: Factor XIIa (Homo sapiens) (UniProt P00748); remark: listed apart in the source
Trypsin (Bos taurus) [8] = target: Trypsin (Bos taurus) (UniProt P00760); remark: listed apart in the source
[9] = target: Pancreatic elastase (Sus scrofa) (UniProt P00772)
Cathepsin L [10] = target: Cathepsin L (UniProt P07711)
Target sequence in this assay (P07711 292-333): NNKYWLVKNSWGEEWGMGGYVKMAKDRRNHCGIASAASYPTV

Leukocyte elastase [11] = target: Leukocyte elastase (UniProt P08246)
Sequence of Leukocyte elastase (P08246 30-267): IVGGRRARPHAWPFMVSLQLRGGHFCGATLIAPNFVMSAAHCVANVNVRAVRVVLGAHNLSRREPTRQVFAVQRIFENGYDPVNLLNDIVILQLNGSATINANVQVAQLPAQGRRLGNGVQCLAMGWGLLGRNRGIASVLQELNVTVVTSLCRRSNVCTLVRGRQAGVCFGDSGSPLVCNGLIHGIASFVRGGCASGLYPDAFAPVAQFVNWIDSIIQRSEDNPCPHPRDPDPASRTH

Cathepsin L [12] = target: Cathepsin L (UniProt P07711); remark: listed apart in the source
Target sequence in this assay (P07711 114-288, chain 1 of 2): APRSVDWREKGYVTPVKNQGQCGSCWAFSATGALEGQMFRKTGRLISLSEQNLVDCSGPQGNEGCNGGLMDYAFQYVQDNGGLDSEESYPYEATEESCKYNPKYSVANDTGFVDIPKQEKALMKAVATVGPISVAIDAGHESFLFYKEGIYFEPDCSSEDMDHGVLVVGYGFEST
Target sequence in this assay (P07711 292-333, chain 2 of 2): as the sequence (P07711 292-333) above

[13] = target: Factor XIIa (Homo sapiens) (UniProt P00748); remark: listed apart in the source
[14] = target: Neutrophil elastase (Homo sapiens) (UniProt P08246)
Plasmin (Homo sapiens) [15] = target: Plasmin (Homo sapiens) (UniProt P00747); remark: listed apart in the source
[16] = target: Plasma kallikrein (Homo sapiens) (UniProt P03952)
Sequence of Plasma kallikrein (Homo sapiens) (P03952 391-638): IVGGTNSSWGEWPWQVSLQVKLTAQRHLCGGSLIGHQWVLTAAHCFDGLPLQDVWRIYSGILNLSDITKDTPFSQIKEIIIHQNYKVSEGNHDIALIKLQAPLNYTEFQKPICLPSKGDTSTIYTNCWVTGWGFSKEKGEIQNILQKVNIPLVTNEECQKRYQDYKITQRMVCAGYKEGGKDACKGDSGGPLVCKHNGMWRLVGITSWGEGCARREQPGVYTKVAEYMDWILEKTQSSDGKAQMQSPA

[17] = target: Chymotrypsin (Bos taurus) (UniProt P00766); remark: listed apart in the source
Trypsin (Bos taurus) [18] = target: Trypsin (Bos taurus) (UniProt P00760); remark: listed apart in the source
Factor Xa (Homo sapiens) [19] = target: Factor Xa (Homo sapiens) (UniProt P00742)
Sequence of Factor Xa (Homo sapiens) (P00742 235-488): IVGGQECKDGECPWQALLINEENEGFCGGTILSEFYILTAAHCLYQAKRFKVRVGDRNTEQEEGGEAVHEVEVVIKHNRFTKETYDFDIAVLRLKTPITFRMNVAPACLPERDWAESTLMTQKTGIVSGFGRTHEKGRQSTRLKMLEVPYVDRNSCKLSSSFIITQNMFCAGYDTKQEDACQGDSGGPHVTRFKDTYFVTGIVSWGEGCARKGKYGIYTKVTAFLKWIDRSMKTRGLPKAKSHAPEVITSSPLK

[20] = target: Factor XIIa (Homo sapiens) (UniProt P00748); remark: listed apart in the source
[21] = target: Kallikrein (Homo sapiens) (UniProt P03952)
[22] = target: Plasma kallikrein (Homo sapiens) (UniProt P03952); remark: listed apart in the source
Trypsin (Bos taurus) [23] = target: Trypsin (Bos taurus) (UniProt P00760); remark: listed apart in the source
[24] = target: Factor XIIa (Homo sapiens) (UniProt P00748); remark: listed apart in the source
Factor Xa (Homo sapiens) [25] = target: Factor Xa (Homo sapiens) (UniProt P00742); remark: listed apart in the source
[26] = target: Factor XIIa (Homo sapiens) (UniProt P00748); remark: listed apart in the source
Plasmin (Homo sapiens) [27] = target: Plasmin (Homo sapiens) (UniProt P00747); remark: listed apart in the source
[28] = target: Kallikrein 4 (Homo sapiens) (UniProt Q9Y5K2)
Trypsin (Bos taurus) [29] = target: Trypsin (Bos taurus) (UniProt P00760); remark: listed apart in the source
[30] = target: Matriptase (Homo sapiens) (UniProt Q9Y5Y6)
[31] = target: β-tryptase (Homo sapiens) (UniProt Q15661)
Cathepsin H [32] = target: Cathepsin H (UniProt P09668)
Cathepsin H [33] = target: Cathepsin H (UniProt P09668); remark: listed apart in the source
Dipeptidyl peptidase I = Dipeptidyl peptidase I (UniProt P53634)
Sequence of Dipeptidyl peptidase I (P53634 25-134, chain 1 of 3): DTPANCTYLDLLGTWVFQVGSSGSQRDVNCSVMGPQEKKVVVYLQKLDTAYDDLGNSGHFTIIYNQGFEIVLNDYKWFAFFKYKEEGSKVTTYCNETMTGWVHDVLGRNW
Sequence of Dipeptidyl peptidase I (P53634 231-394, chain 2 of 3): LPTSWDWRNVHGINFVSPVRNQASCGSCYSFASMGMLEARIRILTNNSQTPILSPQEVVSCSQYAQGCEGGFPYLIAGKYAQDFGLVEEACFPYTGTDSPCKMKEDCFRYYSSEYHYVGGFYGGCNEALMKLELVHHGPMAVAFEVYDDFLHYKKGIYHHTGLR
Sequence of Dipeptidyl peptidase I (P53634 395-463, chain 3 of 3): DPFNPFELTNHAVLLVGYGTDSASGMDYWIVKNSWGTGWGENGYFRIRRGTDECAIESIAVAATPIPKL

[34] = target: Clostripain (Hathewaya histolytica) (UniProt P09870)
Cathepsin B [35] = target: Cathepsin B (UniProt P07858)
Cathepsin L [36] = target: Cathepsin L (UniProt P07711); remark: listed apart in the source
Target sequence in this assay (P07711 292-333): as the sequence (P07711 292-333) above

Clostripain = Clostripain (UniProt P09870)
Cathepsin B [37] = target: Cathepsin B (UniProt P07858); remark: listed apart in the source
Cathepsin L [38] = target: Cathepsin L (UniProt P07711); remark: listed apart in the source
Target sequence in this assay (P07711 114-288, chain 1 of 2): as the sequence (P07711 114-288, chain 1 of 2) above
Target sequence in this assay (P07711 292-333, chain 2 of 2): as the sequence (P07711 292-333) above

[39] = target: Carboxypeptidase A (Bos taurus) (UniProt P00730)
[40] = target: Carboxypeptidase B (Sus scrofa) (UniProt P09955)
Sequence of Carboxypeptidase B (Sus scrofa) (P09955 111-416): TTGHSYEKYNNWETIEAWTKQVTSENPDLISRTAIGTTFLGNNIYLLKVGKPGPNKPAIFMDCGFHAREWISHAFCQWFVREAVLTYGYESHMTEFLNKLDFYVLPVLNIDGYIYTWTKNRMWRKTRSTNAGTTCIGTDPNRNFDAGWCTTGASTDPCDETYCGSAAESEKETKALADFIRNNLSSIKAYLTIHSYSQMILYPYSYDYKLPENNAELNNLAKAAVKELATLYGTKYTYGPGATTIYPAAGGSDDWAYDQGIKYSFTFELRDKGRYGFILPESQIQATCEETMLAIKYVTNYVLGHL

Trypsin (Bos taurus) [41] = target: Trypsin (Bos taurus) (UniProt P00760); remark: listed apart in the source
[42] = target: Factor XIIa (Homo sapiens) (UniProt P00748); remark: listed apart in the source
Plasmin (Homo sapiens) [43] = target: Plasmin (Homo sapiens) (UniProt P00747); remark: listed apart in the source
[44] = target: Chymotrypsin (Bos taurus) (UniProt P00766); remark: listed apart in the source
[45] = target: Plasma kallikrein (Homo sapiens) (UniProt P03952); remark: listed apart in the source
[46] = target: Chymotrypsin (Bos taurus) (UniProt P00766); remark: listed apart in the source
[47] = target: Mast cell chymase (Homo sapiens) (UniProt P23946)
Sequence of Mast cell chymase (Homo sapiens) (P23946 22-247): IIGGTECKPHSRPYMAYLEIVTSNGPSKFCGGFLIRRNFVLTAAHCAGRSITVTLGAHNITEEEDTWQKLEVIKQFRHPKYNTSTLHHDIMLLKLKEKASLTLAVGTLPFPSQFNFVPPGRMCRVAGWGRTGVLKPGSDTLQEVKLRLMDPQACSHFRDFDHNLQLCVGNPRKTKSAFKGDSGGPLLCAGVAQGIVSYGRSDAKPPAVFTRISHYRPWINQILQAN

Trypsin (Bos taurus) [48] = target: Trypsin (Bos taurus) (UniProt P00760); remark: listed apart in the source
Duadenase (Bos taurus) = Duadenase (Bos taurus) (UniProt P80219)
[49] = target: Cathepsin G (Homo sapiens) (UniProt P08311); remark: listed apart in the source
Leukocyte elastase [50] = target: Leukocyte elastase (UniProt P08246); remark: listed apart in the source
Trypsin (Bos taurus) [51] = target: Trypsin (Bos taurus) (UniProt P00760); remark: listed apart in the source

Sequence of SKTI-31 (P01070 25-205): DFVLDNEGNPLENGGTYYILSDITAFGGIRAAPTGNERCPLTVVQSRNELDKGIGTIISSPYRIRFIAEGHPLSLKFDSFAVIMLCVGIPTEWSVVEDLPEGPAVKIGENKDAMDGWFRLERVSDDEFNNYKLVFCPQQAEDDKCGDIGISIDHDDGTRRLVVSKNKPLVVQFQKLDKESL
Sequence of LCTI-II (P25850 whole entry): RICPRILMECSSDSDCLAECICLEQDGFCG
Sequence of MCoTI-II (P82409 whole entry): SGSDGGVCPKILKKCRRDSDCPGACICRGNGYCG
Sequence of Factor XIIa (Homo sapiens) (P00748 whole entry, looked up): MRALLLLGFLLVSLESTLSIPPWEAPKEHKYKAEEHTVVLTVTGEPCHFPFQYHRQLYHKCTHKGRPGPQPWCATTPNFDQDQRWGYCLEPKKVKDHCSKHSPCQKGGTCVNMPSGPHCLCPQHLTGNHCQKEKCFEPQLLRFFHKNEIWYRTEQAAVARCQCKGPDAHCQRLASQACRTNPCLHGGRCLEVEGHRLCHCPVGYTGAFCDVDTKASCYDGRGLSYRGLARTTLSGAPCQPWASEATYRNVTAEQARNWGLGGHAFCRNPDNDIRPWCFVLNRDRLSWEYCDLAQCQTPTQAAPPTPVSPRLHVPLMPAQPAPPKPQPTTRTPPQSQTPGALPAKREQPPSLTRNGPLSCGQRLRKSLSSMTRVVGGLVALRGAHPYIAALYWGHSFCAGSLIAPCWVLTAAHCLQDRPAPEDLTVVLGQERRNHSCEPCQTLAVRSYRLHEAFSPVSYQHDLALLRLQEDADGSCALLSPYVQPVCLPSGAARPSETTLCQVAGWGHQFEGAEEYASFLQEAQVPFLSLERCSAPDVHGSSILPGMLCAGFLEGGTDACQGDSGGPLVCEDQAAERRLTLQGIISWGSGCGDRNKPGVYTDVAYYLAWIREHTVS
Sequence of Cruzipain inhibitor (BbCI) (P83051 whole entry): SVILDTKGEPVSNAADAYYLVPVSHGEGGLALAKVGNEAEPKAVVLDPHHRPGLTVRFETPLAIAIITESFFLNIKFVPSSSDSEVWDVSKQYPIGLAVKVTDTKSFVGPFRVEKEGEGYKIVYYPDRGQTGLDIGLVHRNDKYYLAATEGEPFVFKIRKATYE
Sequence of LLDTI-II (P26771 2-30): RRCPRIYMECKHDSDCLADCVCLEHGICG
Sequence of Soybean BBI (P01055 40-110): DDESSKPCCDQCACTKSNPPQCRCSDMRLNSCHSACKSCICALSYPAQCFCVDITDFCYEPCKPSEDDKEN
Sequence of Trypsin (Bos taurus) (P00760 149-246): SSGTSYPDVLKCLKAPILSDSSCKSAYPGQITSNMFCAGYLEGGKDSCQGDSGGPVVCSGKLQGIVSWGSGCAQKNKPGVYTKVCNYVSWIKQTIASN
Sequence of ATSI (P80211 whole entry): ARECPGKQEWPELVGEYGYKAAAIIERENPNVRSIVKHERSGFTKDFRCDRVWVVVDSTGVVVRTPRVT
Sequence of Plasmin (Homo sapiens) (P00747 581-810): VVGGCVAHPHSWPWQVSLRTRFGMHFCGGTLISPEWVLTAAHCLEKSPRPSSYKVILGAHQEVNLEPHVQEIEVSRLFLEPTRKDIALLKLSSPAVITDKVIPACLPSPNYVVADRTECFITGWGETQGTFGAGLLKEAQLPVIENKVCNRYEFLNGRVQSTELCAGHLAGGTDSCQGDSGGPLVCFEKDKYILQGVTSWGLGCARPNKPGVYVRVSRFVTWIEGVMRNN
Sequence of EcTI (P86451 1-134): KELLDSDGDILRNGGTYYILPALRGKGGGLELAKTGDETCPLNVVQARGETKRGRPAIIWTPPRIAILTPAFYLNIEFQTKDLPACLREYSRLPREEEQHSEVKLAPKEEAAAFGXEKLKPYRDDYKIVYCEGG
Sequence of EcTI (P86451 135-174): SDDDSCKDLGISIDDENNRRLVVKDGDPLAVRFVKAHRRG
Sequence of Oryzacystatin-II (P20907 whole entry): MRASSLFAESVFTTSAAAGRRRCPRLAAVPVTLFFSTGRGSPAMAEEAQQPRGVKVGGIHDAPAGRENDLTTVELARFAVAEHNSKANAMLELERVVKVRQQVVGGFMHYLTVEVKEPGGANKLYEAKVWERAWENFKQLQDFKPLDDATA
Sequence of Potato CPI (P01075 whole entry): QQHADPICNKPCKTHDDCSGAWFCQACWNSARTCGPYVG
Sequence of CMTI-V (P19873 whole entry): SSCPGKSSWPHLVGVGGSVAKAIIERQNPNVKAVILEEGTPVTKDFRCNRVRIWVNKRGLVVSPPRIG
Sequence of CMTI-I (P01074 whole entry): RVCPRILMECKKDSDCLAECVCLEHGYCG
Sequence of Enterolobium EcTI (P86451 1-134): as the sequence (P86451 1-134) above
Sequence of Enterolobium EcTI (P86451 135-174): as the sequence (P86451 135-174) above
Sequence of VhTI (P85981 whole entry): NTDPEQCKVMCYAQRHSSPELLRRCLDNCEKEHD

- Ki (Trypsin (Bos taurus) [1]): 0.34 nM
- Ki [2]: 0.41 nM
- Ki [3]: 440 nM
- Ki (Plasmin (Homo sapiens) [4]): 38 nM
- Ki [5]: 120 nM
Substance: ATSI (from UniProt P80211)

- Ki [7]: 41 nM
- Ki (Trypsin (Bos taurus) [8]): 16 nM
Substance: CMTI-V (from UniProt P19873)

- Ki [9]: 4 nM
- Ki (Cathepsin L [10]): 2.2 nM
- Ki (Leukocyte elastase [11]): 5.3 nM
- Ki (Cathepsin L [12]): 2.2 nM
Substance: Cruzipain inhibitor (BbCI) (from UniProt P83051)

- Ki [17]: 1.1 nM
- Ki (Trypsin (Bos taurus) [18]): 0.8 nM
Substance: Enterolobium EcTI (from UniProt P86451)

- Ki [22]: 27000 nM
- Ki (Trypsin (Bos taurus) [23]): 0.096 nM
- Ki [24]: 1400 nM
- Ki (Factor Xa (Homo sapiens) [25]): 41000 nM
Substance: LLDTI-II (from UniProt P26771)

- Ki (Trypsin (Bos taurus) [41]): 1.2 nM
Substance: RATI (from UniProt P01087)

- Ki [42]: 1400 nM
- Ki (Plasmin (Homo sapiens) [43]): 190 nM
- Ki [44]: 70 nM
- Ki [45]: 5.7 nM
Substance: SKTI-31 (from UniProt P01070)

- Ki (Trypsin (Bos taurus) [51]): < 1 nM
Substance: VhTI (from UniProt P85981)

Further lines, the substance ahead of its results:

Substance: CMTI-I (from UniProt P01074)
- Kd [6]: 41 nM
- Kd (β-Trypsin (Bos taurus)): 13 nM

Substance: EcTI (from UniProt P86451)
- Ki [13]: 82 nM
- Ki [14]: 55 nM
- Ki (Plasmin (Homo sapiens) [15]): 9.4 nM
- Ki [16]: 6.1 nM

Substance: LCTI-II (from UniProt P25850)
- Ki (Factor Xa (Homo sapiens) [19]): 780000 nM
- Ki [20]: 75 nM
- Ki [21]: 0.096 nM

Substance: MCoTI-II (from UniProt P82409)
- Ki [26]: 750 nM
- Ki (Plasmin (Homo sapiens) [27]): 28 nM
- Ki [28]: 1.6 nM
- Ki (Trypsin (Bos taurus) [29]): 0.0023 nM
- Ki [30]: 9 nM
- Ki [31]: 600 nM

Substance: Oryzacystatin-II (from UniProt P20907)
- Ki (Cathepsin H [32]): 25 nM
- Ki (Cathepsin H [33]): 25 nM

Substance: PCPI 8.3 (from UniProt P20347)
- Ki (Dipeptidyl peptidase I): > 500 nM
- Ki [34]: > 500 nM
- Ki (Cathepsin B [35]): 320 nM
- Ki (Cathepsin L [36]): 0.07 nM
- Ki (Clostripain): > 500 nM
- Ki (Cathepsin B [37]): 320 nM
- Ki (Cathepsin L [38]): 0.07 nM

Substance: Potato CPI (from UniProt P01075)
- Ki [39]: 2 nM
- Ki [40]: 4 nM

Substance: Soybean BBI (from UniProt P01055)
- Ki [46]: 29 nM
- Ki [47]: 0.5 nM
- Ki (Trypsin (Bos taurus) [48]): 4 nM
- Ki (Duadenase (Bos taurus)): 0.4 nM
- Ki [49]: 6400 nM
- Ki (Leukocyte elastase [50]): 2.3 nM
